T1: IL4 (type II) receptor (UniProt P24394 26-825; P78552 22-427, limits assumed)
T1 sequence (looked up) 1: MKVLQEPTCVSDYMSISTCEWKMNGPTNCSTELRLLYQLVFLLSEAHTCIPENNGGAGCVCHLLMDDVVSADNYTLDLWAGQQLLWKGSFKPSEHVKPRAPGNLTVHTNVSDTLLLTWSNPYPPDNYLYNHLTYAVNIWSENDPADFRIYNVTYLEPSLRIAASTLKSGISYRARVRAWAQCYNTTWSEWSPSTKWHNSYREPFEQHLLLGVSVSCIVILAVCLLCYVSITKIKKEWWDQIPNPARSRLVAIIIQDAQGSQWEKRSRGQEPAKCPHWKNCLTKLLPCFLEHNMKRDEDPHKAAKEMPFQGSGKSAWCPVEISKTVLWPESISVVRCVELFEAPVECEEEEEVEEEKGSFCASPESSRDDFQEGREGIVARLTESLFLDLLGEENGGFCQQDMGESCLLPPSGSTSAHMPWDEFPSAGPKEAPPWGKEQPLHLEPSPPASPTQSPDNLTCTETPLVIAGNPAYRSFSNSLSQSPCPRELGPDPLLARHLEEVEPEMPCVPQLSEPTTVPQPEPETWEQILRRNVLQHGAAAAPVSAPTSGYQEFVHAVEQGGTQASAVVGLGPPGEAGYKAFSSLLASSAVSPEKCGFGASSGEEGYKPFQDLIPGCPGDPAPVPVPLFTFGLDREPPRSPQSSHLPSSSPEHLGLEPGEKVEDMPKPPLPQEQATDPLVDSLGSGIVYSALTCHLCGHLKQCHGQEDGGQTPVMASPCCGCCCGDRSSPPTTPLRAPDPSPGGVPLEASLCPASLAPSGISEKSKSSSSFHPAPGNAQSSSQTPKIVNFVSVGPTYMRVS
T1 sequence (looked up) 2: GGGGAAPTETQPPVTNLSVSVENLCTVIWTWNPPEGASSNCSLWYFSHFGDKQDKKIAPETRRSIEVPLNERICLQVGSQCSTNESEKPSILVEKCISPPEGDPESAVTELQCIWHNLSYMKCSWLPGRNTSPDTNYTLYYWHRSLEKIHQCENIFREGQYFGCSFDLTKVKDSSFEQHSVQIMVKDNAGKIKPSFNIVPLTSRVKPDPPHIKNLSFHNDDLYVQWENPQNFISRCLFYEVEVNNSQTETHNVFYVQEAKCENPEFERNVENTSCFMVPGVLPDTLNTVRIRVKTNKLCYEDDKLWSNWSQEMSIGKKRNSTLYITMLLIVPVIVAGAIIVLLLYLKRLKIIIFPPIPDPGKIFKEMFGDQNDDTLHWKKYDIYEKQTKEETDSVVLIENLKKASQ

T2: IL10 receptor (UniProt Q13651 22-578; Q08334 20-325, limits assumed)
T2 sequence (looked up) 1: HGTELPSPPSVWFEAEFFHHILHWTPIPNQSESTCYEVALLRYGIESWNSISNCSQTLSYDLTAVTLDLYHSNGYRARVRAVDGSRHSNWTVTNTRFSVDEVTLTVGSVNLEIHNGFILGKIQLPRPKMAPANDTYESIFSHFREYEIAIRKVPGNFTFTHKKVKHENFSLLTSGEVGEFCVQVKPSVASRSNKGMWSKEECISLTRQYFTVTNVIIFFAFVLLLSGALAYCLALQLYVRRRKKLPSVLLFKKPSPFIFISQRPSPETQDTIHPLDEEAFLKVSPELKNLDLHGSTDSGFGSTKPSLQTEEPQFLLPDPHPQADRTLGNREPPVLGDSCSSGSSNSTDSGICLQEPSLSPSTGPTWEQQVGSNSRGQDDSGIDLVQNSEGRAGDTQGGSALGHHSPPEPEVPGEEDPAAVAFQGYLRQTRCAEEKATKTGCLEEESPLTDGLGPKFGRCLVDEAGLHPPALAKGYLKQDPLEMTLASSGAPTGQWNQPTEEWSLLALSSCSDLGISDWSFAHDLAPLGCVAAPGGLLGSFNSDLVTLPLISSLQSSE
T2 sequence (looked up) 2: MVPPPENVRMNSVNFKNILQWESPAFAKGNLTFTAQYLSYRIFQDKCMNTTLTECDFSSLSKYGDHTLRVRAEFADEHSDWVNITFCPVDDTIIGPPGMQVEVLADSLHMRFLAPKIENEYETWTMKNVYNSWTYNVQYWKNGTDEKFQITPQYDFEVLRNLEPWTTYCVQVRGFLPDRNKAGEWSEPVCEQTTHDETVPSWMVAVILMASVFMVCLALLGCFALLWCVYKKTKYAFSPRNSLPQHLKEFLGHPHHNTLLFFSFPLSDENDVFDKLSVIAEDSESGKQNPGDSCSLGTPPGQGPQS

B1: IL4-Fc (Fc fusion)
chain: HKCDITLQEIIKTLNSLTEQKTLCTELTVTDIFAASKNTTEKETFCRAATVLRQFYSHHEKDTRCLGATAQQFHRHKQLIRFLKRLDRNLWGLAGLNSCPVKEANQSTLENFLERLKTIMREKYSKCSSGSGGGGSGTCPPCPAPELLGGPSVFLFPPKPKDTLMISRTPEVTCVVVDVSHEDPEVKFNWYVDGVEVHNAKTKPREEQYNSTYRVVSVLTVLHQDWLNGKEYKCKVSNKALPAPIEKTISKAKGQPREPQVCTLPPSRDELTKNQVSLSCAVKGFYPSDIAVEWESNGQPENNYKTTPPVLDSDGSFFLVSKLTVDKSRWQQGNVFSCSVMHEALHNHYTQKSLSLSPGK
B2: IL4-10 fusion (wt, dimer) (ligand)
chain: HKCDITLQEIIKTLNSLTEQKTLCTELTVTDIFAASKNTTEKETFCRAATVLRQFYSHHEKDTRCLGATAQQFHRHKQLIRFLKRLDRNLWGLAGLNSCPVKEANQSTLENFLERLKTIMREKYSKCSSGSGGGGSGTSPGQGTQSENSCTHFPGNLPNMLRDLRDAFSRVKTFFQMKDQLDNLLLKESLLEDFKGYLGCQALSEMIQFYLEEVMPQAENQDPDIKAHVNSLGENLKTLRLRLRRCHRFLPCENKSKAVEQVKNAFNKLQEKGIYKAMSEFDIFINYIEAYMTMKIRN
B3: IL4-10M(J) (ligand)
chain: HKCDITLQEIIKTLNSLTEQKTLCTELTVTDIFAASKNTTEKETFCRAATVLRQFYSHHEKDTRCLGATAQQFHRHKQLIRFLKRLDRNLWGLAGLNSCPVKEANQSTLENFLERLKTIMREKYSKCSSGSGGGGSGTSPGQGTQSENSCTHFPGNLPNMLRDLRDAFSRVKTFFQMKDQLDNLLLKESLLEDFKGYLGCQALSEMIQFYLEEVMPQAENQDPDIKAHVNSLGENLKTLRLRLRRCHRFLPCENGGGSGGKSKAVEQVKNAFNKLQEKGIYKAMSEFDIFINYIEAYMTMKIRN
B4: IL4-10M(J) mouse Fc (Fc fusion)
chain 1: HKCDITLQEIIKTLNSLTEQKTLCTELTVTDIFAASKNTTEKETFCRAATVLRQFYSHHEKDTRCLGATAQQFHRHKQLIRFLKRLDRNLWGLAGLNSCPVKEANQSTLENFLERLKTIMREKYSKCSSGSGGGGSGTCKPCICTVPEVSSVFIFPPKPKDVLTITLTPKVTCVVVAISKDDPEVQFSWFVDDVEVHTAQTKPREEQINSTFRSVSELPIMHQDWLNGKEFKCRVNSAAFPAPIEKTISKTKGRPKAPQVYTIPPPKKQMAKDKVSLTCMITNFFPEDITVEWQWNGQPAENYKNTQPIMKTDGSYFVYSKLNVQKSNWEAGNTFTCSVLHEGLHNHHTEKSLSHSPGK
chain 2: SPGQGTQSENSCTHFPGNLPNMLRDLRDAFSRVKTFFQMKDQLDNLLLKESLLEDFKGYLGCQALSEMIQFYLEEVMPQAENQDPDIKAHVNSLGENLKTLRLRLRRCHRFLPCENGGGSGGKSKAVEQVKNAFNKLQEKGIYKAMSEFDIFINYIEAYMTMKIRNTGSGGGGSGTCKPCICTVPEVSSVFIFPPKPKDVLTITLTPKVTCVVVAISKDDPEVQFSWFVDDVEVHTAQTKPREEQINSTFRSVSELPIMHQDWLNGKEFKCRVNSAAFPAPIEKTISKTKGRPKAPQVYTIPPPKEQMAKDKVSLTCMITNFFPEDITVEWQWNGQPAENYKNTQPIMDTDGSYFVYSELNVQKSNWEAGNTFTCSVLHEGLHNHHTEDSLSHSPGK
B5: IL10M(J) (ligand)
chain: SPGQGTQSENSCTHFPGNLPNMLRDLRDAFSRVKTFFQMKDQLDNLLLKESLLEDFKGYLGCQALSEMIQFYLEEVMPQAENQDPDIKAHVNSLGENLKTLRLRLRRCHRFLPCENGGGSGGKSKAVEQVKNAFNKLQEKGIYKAMSEFDIFINYIEAYMTMKIRN
B6: IL10M(S) (ligand)
chain: KSKAVEQVKNAFNKLQEKGIYKAMSEFDIFINYIEAYMTMKIRNGSGGGGSGTSPGQGTQSENSCTHFPGNLPNMLRDLRDAFSRVKTFFQMKDQLDNLLLKESLLEDFKGYLGCQALSEMIQFYLEEVMPQAENQDPDIKAHVNSLGENLKTLRLRLRRCHRFLPCEN
B7: IL4-10M(S) (ligand)
chain: KSKAVEQVKNAFNKLQEKGIYKAMSEFDIFINYIEAYMTMKIRNGSGGGGSGTSPGQGTQSENSCTHFPGNLPNMLRDLRDAFSRVKTFFQMKDQLDNLLLKESLLEDFKGYLGCQALSEMIQFYLEEVMPQAENQDPDIKAHVNSLGENLKTLRLRLRRCHRFLPCENGSGGGGSGTHKCDITLQEIIKTLNSLTEQKTLCTELTVTDIFAASKNTTEKETFCRAATVLRQFYSHHEKDTRCLGATAQQFHRHKQLIRFLKRLDRNLWGLAGLNSCPVKEANQSTLENFLERLKTIMREKYSKCSSHHHHHH
B8: IL4-13 (mouse) (ligand)
chain: HHHHHHIHGCDKNHLREIIGILNEVTGEGTPCTEMDVPNVLTATKNTTESELVCRASKVLRIFYLKHGKTPCLKKNSSVLMELQRLFRAFRCLDSSISCTMNESKSTSLKDFLESLKSIMQMDYSGSGGGGSGTAPGPVPRSVSLPLTLKELIEELSNITQDQTPLCNGSMVWSVDLAAGGFCVALDSLTNISNCNAIYRTQRILHGLCNRKAPTTVSSLPDTKIEVAHFITKLLSYTKQLFRHGPF
B9: IL4-13 Fc (mouse) (Fc fusion)
chain 1: HIHGCDKNHLREIIGILNEVTGEGTPCTEMDVPNVLTATKNTTESELVCRASKVLRIFYLKHGKTPCLKKNSSVLMELQRLFRAFRCLDSSISCTMNESKSTSLKDFLESLKSIMQMDYSGSGGGGSGTCKPCICTVPEVSSVFIFPPKPKDVLTITLTPKVTCVVVAISKDDPEVQFSWFVDDVEVHTAQTKPREEQINSTFRSVSELPIMHQDWLNGKEFKCRVNSAAFPAPIEKTISKTKGRPKAPQVYTIPPPKKQMAKDKVSLTCMITNFFPEDITVEWQWNGQPAENYKNTQPIMKTDGSYFVYSKLNVQKSNWEAGNTFTCSVLHEGLHNHHTEKSLSHSPGK
chain 2: APGPVPRSVSLPLTLKELIEELSNITQDQTPLCNGSMVWSVDLAAGGFCVALDSLTNISNCNAIYRTQRILHGLCNRKAPTTVSSLPDTKIEVAHFITKLLSYTKQLFRHGPFTGSGGGGSGTCKPCICTVPEVSSVFIFPPKPKDVLTITLTPKVTCVVVAISKDDPEVQFSWFVDDVEVHTAQTKPREEQINSTFRSVSELPIMHQDWLNGKEFKCRVNSAAFPAPIEKTISKTKGRPKAPQVYTIPPPKEQMAKDKVSLTCMITNFFPEDITVEWQWNGQPAENYKNTQPIMDTDGSYFVYSELNVQKSNWEAGNTFTCSVLHEGLHNHHTEDSLSHSPGK

target: T1, IL4 (type II) receptor; assay: cell-based or functional assay

Binder	HEK-Blue IL4/13 EC50 (STAT6-induced SEAP expression) [pM]
B1	20.1

target: T2, IL10 receptor; assay: cell-based or functional assay

Binder	HEK-Blue IL10 EC50 (STAT-3 mediated SEAP expression) [pM]
B2	28.9
B3	77.8
B4	520
B5	63.4
B6	149
B7	117

target: mIL4Ra/mIL13Ra2 (mouse, UniProt P16382 26-257; O88786 22-355); assay: cell-based or functional assay
Sequence (P16382 26-257, chain 1 of 2): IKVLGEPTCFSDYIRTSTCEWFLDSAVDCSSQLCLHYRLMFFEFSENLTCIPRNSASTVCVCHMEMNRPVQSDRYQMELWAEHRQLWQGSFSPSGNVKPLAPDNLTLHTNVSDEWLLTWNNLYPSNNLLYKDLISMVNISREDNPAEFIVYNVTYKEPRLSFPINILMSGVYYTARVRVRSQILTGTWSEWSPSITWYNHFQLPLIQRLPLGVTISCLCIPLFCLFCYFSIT
Sequence (O88786 22-355, chain 2 of 2): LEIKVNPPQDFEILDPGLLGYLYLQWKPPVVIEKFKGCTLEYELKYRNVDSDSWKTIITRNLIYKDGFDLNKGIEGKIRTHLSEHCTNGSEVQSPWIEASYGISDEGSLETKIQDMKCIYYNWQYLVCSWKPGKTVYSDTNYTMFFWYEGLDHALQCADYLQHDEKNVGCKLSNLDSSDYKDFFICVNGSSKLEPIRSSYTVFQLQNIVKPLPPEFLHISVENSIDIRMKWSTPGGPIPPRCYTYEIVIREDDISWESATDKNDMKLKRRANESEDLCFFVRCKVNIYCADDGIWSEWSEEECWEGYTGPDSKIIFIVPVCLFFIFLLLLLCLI

Binder	Heterologous clustering mIL4Ra/mIL13Ra2 EC50 (NanoBiT enzyme complementation) [pM]
B8	187
B9	1100

Source: patent publication US20260132178A1 (SYNERKINE PHARMA B V, published 2026)
